# Measured values from the supplement of paper PMC10126150.
# ± gives the standard deviation of the averaged measurements.
# Test system: ATP
# Test: switch fluorescence ratio, 500 uM ATP over buffer (Cy3 cluster intensity, sum of 5 cycles each) (fold (ratio)); higher = stronger signal-on switching upon ATP binding; sequences stand for … in TCGTCGGCAGCGTCAGATGTGTATAAGAGACAGTTTTTTTTTTTTTTTTTTTTTTTTT…TC
# Conditions: aptamer strand: ATP DNA aptamer (quencher-CACCTGGGGGAGTATTGCGGAGGAAGG + anchor), 100 nM annealed; ATP concentration: 500 uM
# Procedure, shortened: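 Exposure to 500 uM ATP lasted 15 min at 22 °C before imaging, and a selection-buffer image was taken beforehand, for Cy3-labelled switching-strand clusters on a modified Illumina MiSeq flow-cell annealed to 100 nM quencher-labelled ATP aptamer. Five buffer/ATP cycles were run with NaOH stripping and re-annealing between them. The fluorescence ratio per cluster is summed target-cycle over summed buffer-cycle Cy3 intensity, averaged per switch-domain sequence. Clusters outside 100-1000 RFU were excluded.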
row,Sequence,switch fluorescence ratio
1,AATATGTAAT,0.989 ± 0.021
2,AATATGTTTT,1.01 ± 0.026
3,AATATTTAAC,0.9828 ± 0.0024
4,AATATTTGAA,1.02 ± 0.021
5,AATATTTTAT,1.014 ± 0.0022
6,AATATTTTCG,0.998 ± 0.038
7,AATATTTTGT,0.9833 ± 0.004
8,AATCAAACTA,1.05 ± 0.028
9,AATCAAGTCT,0.999 ± 0.011
10,AATCAGAGCG,1.021 ± 0.0021
11,AATCAGGAAG,1.02 ± 0.035
12,AATCAGGCGA,1.013 ± 0.0032
13,AATCATCGGT,0.999 ± 0.027
14,AATCATGCGA,0.9964 ± 0.0078
15,AATCATTTTT,0.986 ± 0.026
16,AATCCGACGA,1.66 ± 0.17
17,AATCCGTCAT,1.14 ± 0.017
18,AATCGATCGG,1.01 ± 0.028
19,AATCGCTCTG,1.01 ± 0.027
20,AATCGCTTTT,1 ± 0.053
21,AATCGGCGGG,0.975 ± 0.022
22,AATCGGTCGT,0.994 ± 0.031
23,AATCGGTTTG,0.987 ± 0.029

row,Sequence,switch fluorescence ratio
1,AATCGTCATC,0.991 ± 0.016
2,AATCGTCTTG,0.97 ± 0.034
3,AATCGTGGAA,1.01 ± 0.019
4,AATCGTGGGG,0.975 ± 0.017
5,AATCTAGATT,1.002 ± 0.003
6,AATCTATCCC,1.027 ± 0.0042
7,AATCTGATGG,0.974 ± 0.044
8,AATCTGGACG,1.06 ± 0.048
9,AATCTGTCGT,0.982 ± 0.054
10,AATCTTCTTA,1.001 ± 0.0034
11,AATGAAAAAC,1.007 ± 0.0054
12,AATGAACGTT,1.03 ± 0.078
13,AATGAAGTTT,1.43 ± 0.7
14,AATGAGACAG,1 ± 0.02
15,AATGAGATTG,0.989 ± 0.012
16,AATGAGGGGT,0.966 ± 0.031
17,AATGATAGTT,0.986 ± 0.02
18,AATGATATTG,0.998 ± 0.032
19,AATGATTCTT,0.98 ± 0.016
20,AATGATTGCG,1 ± 0.039
21,AATGCGTTTT,1.04 ± 0.023
22,AATGCTCGGC,0.9646 ± 0.0092
23,AATGCTGTAT,0.985 ± 0.011

row,Sequence,switch fluorescence ratio
1,AATGGAATCC,1.02 ± 0.035
2,AATGGAATTG,0.9965 ± 0.005
3,AATGGAGAAC,1.01 ± 0.028
4,AATGGATGCG,1 ± 0.029
5,AATGGATTGG,0.997 ± 0.018
6,AATGGCGGGC,1.01 ± 0.029
7,AATGGGCGCT,0.97198 ± 0.00095
8,AATGGGGACA,0.995 ± 0.051
9,AATGGGGACG,0.985 ± 0.021
10,AATGGGGACT,1 ± 0.012
11,AATGGGGGGC,1 ± 0.041
12,AATGGGGTGT,0.987 ± 0.021
13,AATGGGTGAA,0.97511 ± 0.00091
14,AATGGGTGGG,1 ± 0.062
15,AATGGGTGTG,1.01 ± 0.023
16,AATGGTAGAA,0.986 ± 0.048
17,AATGGTGATG,0.9904 ± 0.0077
18,AATGGTTTTC,0.9948 ± 0.0023
19,AATGTAAAAC,1.06 ± 0.066
20,AATGTAATAA,1.05 ± 0.084
21,AATGTAGGGG,1.02 ± 0.045
22,AATGTAGTTG,1.02 ± 0.027
23,AATGTGAGAC,1.07 ± 0.073

row,Sequence,switch fluorescence ratio
1,AATGTGCAAA,1.01 ± 0.022
2,AATGTGGGCC,1.024 ± 0.0013
3,AATGTGGGGT,0.995 ± 0.026
4,AATGTGGTCT,0.994 ± 0.021
5,AATGTTAATG,0.94 ± 0.019
6,AATGTTCGGT,0.989 ± 0.011
7,AATGTTCTTT,0.977 ± 0.062
8,AATGTTGGAG,0.985 ± 0.028
9,AATGTTGTGC,0.9381 ± 0.0049
10,AATGTTTGGG,0.981 ± 0.021
11,AATGTTTGTC,1.03 ± 0.1
12,AATGTTTTTG,1.02 ± 0.046
13,AATTAAAGGG,1.03 ± 0.066
14,AATTAAATA,0.979 ± 0.037
15,AATTAACTTT,0.985 ± 0.023
16,AATTAGGGAA,1.01 ± 0.023
17,AATTATACAT,1.04 ± 0.043
18,AATTATATCA,1.01 ± 0.01
19,AATTATGATG,0.9948 ± 0.0069
20,AATTATGGGC,1.023 ± 0.0064
21,AATTATGTAG,1 ± 0.014
22,AATTATGTTT,0.995 ± 0.03
23,AATTCCGAGG,1.14 ± 0.021

row,Sequence,switch fluorescence ratio
1,AATTCGGATG,1.02 ± 0.034
2,AATTCGTGAA,1.01 ± 0.013
3,AATTCTGGCT,1.006 ± 0.0071
4,AATTGAAAAA,1.05 ± 0.069
5,AATTGAAAAT,0.967 ± 0.0073
6,AATTGATTAG,1.03 ± 0.038
7,AATTGATTCT,1.026 ± 0.0018
8,AATTGCTCGT,1 ± 0.016
9,AATTGG,0.992 ± 0.018
10,AATTGGAGTG,0.998 ± 0.041
11,AATTGGCGGT,1.03 ± 0.027
12,AATTGGGGTA,0.989 ± 0.026
13,AATTGGGGTC,0.967 ± 0.031
14,AATTGGGTTA,0.976 ± 0.023
15,AATTGGTCCT,0.986 ± 0.041
16,AATTGGTGCG,0.985 ± 0.035
17,AATTGTATCA,1 ± 0.054
18,AATTGTATCT,1.01 ± 0.063
19,AATTGTGGGC,0.978 ± 0.047
20,AATTGTTAGT,0.994 ± 0.03
21,AATTGTTATT,0.9919 ± 0.0034
22,AATTGTTGCG,0.974 ± 0.015
23,AATTTAAGGC,0.985 ± 0.078

row,Sequence,switch fluorescence ratio
1,AATTTACTCT,1.07 ± 0.018
2,AATTTACTGG,1.13 ± 0.084
3,AATTTAGCCA,1.02 ± 0.018
4,AATTTAGGAA,0.975 ± 0.037
5,AATTTATAAT,1.01 ± 0.036
6,AATTTCAAGT,1 ± 0.039
7,AATTTCATGT,1.01 ± 0.012
8,AATTTGAGCC,0.965 ± 0.039
9,AATTTGGCGT,0.968 ± 0.011
10,AATTTGGCTG,1.22 ± 0.29
11,AATTTGGGAG,1.01 ± 0.025
12,AATTTGGGTC,0.981 ± 0.016
13,AATTTGGGTG,1.04 ± 0.049
14,AATTTGTCAT,0.972 ± 0.045
15,AATTTGTTGG,0.996 ± 0.017
16,AATTTGTTGT,0.996 ± 0.025
17,AATTTTAAAT,1.09 ± 0.21
18,AATTTTAACT,1.022 ± 0.0064
19,AATTTTGATG,0.971 ± 0.018
20,AATTTTTAAG,0.997 ± 0.011
21,AATTTTTCAG,0.985 ± 0.018
22,AATTTTTCGT,1 ± 0.027
23,AATTTTTGTC,1.01 ± 0.023

row,Sequence,switch fluorescence ratio
1,AATTTTTTTC,0.989 ± 0.015
2,ACAAAAATAG,0.993 ± 0.04
3,ACAAACCACC,1.34 ± 0.057
4,ACAAACGGCA,1.33 ± 0.024
5,ACAAAGGGAC,1.06 ± 0.12
6,ACAAAGGGGG,0.92 ± 0.087
7,ACAAAGGTCG,1.01 ± 0.022
8,ACAAATATAT,1.17 ± 0.081
9,ACAAATGGCA,1.07 ± 0.037
10,ACAACCGCTT,1.13 ± 0.017
11,ACAACGAAAG,1.039 ± 0.0061
12,ACAACGAGGT,1.015 ± 0.0093
13,ACAACTCAGG,1.22 ± 0.022
14,ACAAGATACG,1.13 ± 0.013
15,ACAAGGATTC,0.995 ± 0.025
16,ACAAGGGAGA,1.06 ± 0.012
17,ACAAGTGACG,0.988 ± 0.026
18,ACAAGTGTTC,1 ± 0.051
19,ACAAGTTGGA,1.11 ± 0.061
